{"source": "patent US20120114590A1", "about": "(priority 2005, published 2012)", "key": {"BVDV": {"system": "BVDV", "experiment": "BVDV inhibition of cytopathic effect assay in MDBK cells", "assay_type": "cell-based, bovine viral diarrhea virus", "settings": "MDBK bovine kidney cells, day 7", "method": "The MDBK cells were propagated in Dulbecco's modified essential medium (DMEM) containing phenol red with 10% horse serum, 1% glutamine and 1% penicillin-streptomycin. CPE inhibition assays were performed in DMEM without phenol red with 2% FBS, 1% glutamine and 1% Pen-Strep. On the day preceding the assays, cells were trypsinized (1% trypsin-EDTA), washed, counted and plated out at 10^4 cells/well in a 96-well flat-bottom BioCoat® plates (Fisher Scientific, Pittsburgh, Pa.) in a volume of 100 μl/well. The next day, the medium was removed and a pre-titered aliquot of virus was added to the cells. The amount of virus was the maximum dilution that would yield complete cell killing (>80%) at the time of maximal CPE development (day 7 for BVDV). Cell viability was determined using a CellTiter96® reagent (Promega) according to the manufacturer's protocol, using a Vmax plate reader (Molecular Devices, Sunnyvale, Calif.). Test samples were tested at six concentrations each, diluted in assay medium in a half-log series. IFNα and RIBAVIRIN® were used as positive controls. Test sample were added at the time of viral infection. The average background and sample color-corrected data for percent CPE reduction and percent cell viability at each concentration were determined relative to controls and the IC50 calculated relative to the TC50."}, "Adenovirus": {"system": "Adenovirus", "assay_type": "cell-based"}, "Parainfluenza virus": {"system": "Parainfluenza virus", "assay_type": "cell-based"}, "[1]": {"system": "Respiratory syncytial virus", "assay_type": "cell-based"}, "Rhino 2 [2]": {"system": "Rhino 2", "assay_type": "cell-based, rhino virus", "settings": "Rhino 2, KB"}, "Rhino 9 [3]": {"system": "Rhino 9", "assay_type": "cell-based, rhino virus", "settings": "Rhino 9, HeLa"}, "Coxsackie B4 virus [4]": {"system": "Coxsackie B4 virus", "assay_type": "cell-based", "settings": "KB"}, "Vaccinia virus": {"system": "Vaccinia virus", "assay_type": "cell-based", "settings": "Vero"}, "West Nile virus": {"system": "West Nile virus", "assay_type": "cell-based", "settings": "Vero"}, "Dengue virus [5]": {"system": "Dengue virus", "assay_type": "cell-based", "settings": "Vero"}, "[6]": {"system": "Venezuelan equine encephalitis virus", "assay_type": "cell-based", "settings": "Vero"}, "Pichinde virus": {"system": "Pichinde virus", "assay_type": "cell-based"}, "Polio virus [7]": {"system": "Polio virus", "assay_type": "cell-based", "settings": "Vero"}, "[8]": {"system": "Respiratory syncytial virus", "assay_type": "cell-based", "settings": "MA-104 cells, Neutral Red Assay"}, "Rhino 2 [9]": {"system": "Rhino 2", "assay_type": "cell-based, rhino virus", "settings": "Rhino 2, KB cells, Neutral Red Assay"}, "Rhino 9 [10]": {"system": "Rhino 9", "assay_type": "cell-based, rhino virus", "settings": "Rhino 9, HeLa cells, Neutral Red Assay"}, "Coxsackie B4 virus [11]": {"system": "Coxsackie B4 virus", "assay_type": "cell-based", "settings": "KB cells, Neutral Red Assay"}, "[12]": {"system": "Influenza (type A [H3N2])", "assay_type": "cell-based", "settings": "Maden-Darby Canine Kidney cells, Neutral Red Assay"}, "Dengue virus [13]": {"system": "Dengue virus", "assay_type": "cell-based", "settings": "Vero cells, Neutral Red Assay"}, "[14]": {"system": "Venezuelan equine encephalitis virus", "assay_type": "cell-based", "settings": "Vero cells, Neutral Red Assay"}, "Polio virus [15]": {"system": "Polio virus", "assay_type": "cell-based", "settings": "Vero cells, Neutral Red Assay"}, "[16]": {"system": "spleens of transgenic mice", "experiment": "ISG expression in spleens of Eu-lck human IL-29 transgenic mice (real-time PCR)", "assay_type": "in vivo, mouse", "settings": "spleens of Eu-lck IL-29 transgenic mice; fold expression relative to HPRT; average of two mice", "method": "This promoter is active in T cells and B cells. Transgenic mice and their non-transgenic littermates (n=2/gp) were sacrificed at about 10 weeks of age. Spleens of mice were isolated. RNA was isolated from cell pellets using RNAEasy-kit® (Qiagen). RNA was treated with DNase to clean RNA of any contaminating DNA. cDNA was generated using Perkin-Elmer RT® mix. ISG gene induction was evaluated by real-time PCR using primers and probes (5′ FAM, 3′ NFQ) specific for mouse OAS, Pkr and Mx1. To obtain quantitative data, HPRT real-time PCR was duplexed with ISG PCR. Furthermore, a standard curve was obtained using known amounts of IFN stimulated mouse PBLs. All data are shown as expression relative to internal HPRT expression."}, "OAS": {"system": "OAS", "experiment": "OAS activity in serum and plasma of mice (OAS radioimmunoassay)", "assay_type": "in vivo, mouse", "settings": "C57BL/6 mice", "method": "Serum and plasma were isolated from mice at varying time points, and OAS activity was measured using the OAS radioimmunoassay (RIA) kit from Eiken Chemicals (Tokyo, Japan)."}, "[17]": {"system": "human marrow mononuclear cells"}}, "data": [{"molecule": "IL-29: human IL-29 cytokine polypeptide (zcyto21), e.g. SEQ ID NO:20 (protein, listed as Homo sapiens, SIGNAL (1)...(19)) MAAAWTVVLVTLVLGLAVAGPVPTSKPTTTGKGCHIGRFKSLSPQELASFKKARDALEESLKLKNWSCSSPVFPGNWDLRLLQVRERPVALEAELALTLKVLEAAAGPALEDVLDQPLHTLHHILSQLQACIQPQPTAGPRPRGRLHHWLHRLQEAPKKESAGCLEASVTFNLFRLLTRDLKYVADGNLCLRTSTHPEST", "values": [{"measurement": "IC50 (inhibition of cell death induced by BVDV)", "setting": "BVDV", "value": 0.19, "unit": "µg/mL"}, {"measurement": "EC50 Visual", "setting": "Adenovirus; A549", "value": ">10", "unit": "µg/mL"}, {"measurement": "IC50 Visual", "setting": "Adenovirus; A549, numerator of SI", "value": ">10", "unit": "µg/mL"}, {"measurement": "EC50 Visual", "setting": "Parainfluenza virus; MA-104", "value": ">10", "unit": "µg/mL"}, {"measurement": "IC50 Visual", "setting": "Parainfluenza virus; MA-104, numerator of SI", "value": ">10", "unit": "µg/mL"}, {"measurement": "EC50 Visual", "setting": "[1]; MA-104", "value": ">10", "unit": "µg/mL"}, {"measurement": "IC50 Visual", "setting": "[1]; MA-104, numerator of SI", "value": ">10", "unit": "µg/mL"}, {"measurement": "EC50 Visual", "setting": "Rhino 2 [2]", "value": ">10", "unit": "µg/mL"}, {"measurement": "IC50 Visual", "setting": "Rhino 2 [2]; numerator of SI", "value": ">10", "unit": "µg/mL"}, {"measurement": "EC50 Visual", "setting": "Rhino 9 [3]", "value": ">10", "unit": "µg/mL"}, {"measurement": "IC50 Visual", "setting": "Rhino 9 [3]; numerator of SI", "value": ">10", "unit": "µg/mL"}, {"measurement": "EC50 Visual", "setting": "Coxsackie B4 virus [4]", "value": ">10", "unit": "µg/mL"}, {"measurement": "IC50 Visual", "setting": "Coxsackie B4 virus [4]; numerator of SI", "value": ">10", "unit": "µg/mL"}, {"measurement": "EC50 Visual", "setting": "Vaccinia virus", "value": ">10", "unit": "µg/mL"}, {"measurement": "IC50 Visual", "setting": "Vaccinia virus; numerator of SI", "value": ">10", "unit": "µg/mL"}, {"measurement": "EC50 Visual", "setting": "West Nile virus", "value": 0.032, "unit": "ng/mL"}, {"measurement": "IC50 Visual", "setting": "West Nile virus; numerator of SI", "value": ">10", "unit": "µg/mL"}, {"measurement": "EC50 Visual", "setting": "Dengue virus [5]", "value": 0.032, "unit": "µg/mL"}, {"measurement": "IC50 Visual", "setting": "Dengue virus [5]; numerator of SI", "value": ">10", "unit": "µg/mL"}, {"measurement": "EC50 Visual", "setting": "[6]", "value": 0.012, "unit": "µg/mL"}, {"measurement": "IC50 Visual", "setting": "[6]; numerator of SI", "value": ">10", "unit": "µg/mL"}, {"measurement": "EC50 Visual", "setting": "Pichinde virus", "value": ">10", "unit": "µg/mL"}, {"measurement": "IC50 Visual", "setting": "Pichinde virus", "value": ">10", "unit": "µg/mL"}, {"measurement": "EC50 Visual", "setting": "Polio virus [7]", "value": ">10", "unit": "µg/mL"}, {"measurement": "IC50 Visual", "setting": "Polio virus [7]; numerator of SI", "value": ">10", "unit": "µg/mL"}, {"measurement": "EC50 NR", "setting": "[8]", "value": ">10", "unit": "µg/mL"}, {"measurement": "IC50 NR", "setting": "[8]", "value": ">10", "unit": "µg/mL"}, {"measurement": "EC50 NR", "setting": "Rhino 2 [9]", "value": ">10", "unit": "µg/mL"}, {"measurement": "IC50 NR", "setting": "Rhino 2 [9]", "value": ">10", "unit": "µg/mL"}, {"measurement": "EC50 NR", "setting": "Rhino 9 [10]", "value": 0.982, "unit": "µg/mL"}, {"measurement": "IC50 NR", "setting": "Rhino 9 [10]", "value": ">10", "unit": "µg/mL"}, {"measurement": "EC50 NR", "setting": "Coxsackie B4 virus [11]", "value": ">10", "unit": "µg/mL"}, {"measurement": "IC50 NR", "setting": "Coxsackie B4 virus [11]", "value": ">10", "unit": "µg/mL"}, {"measurement": "EC50 NR", "setting": "[12]", "value": ">10", "unit": "µg/mL"}, {"measurement": "IC50 NR", "setting": "[12]", "value": ">10", "unit": "µg/mL"}, {"measurement": "EC50 NR", "setting": "Dengue virus [13]", "value": 0.05, "unit": "µg/mL"}, {"measurement": "IC50 NR", "setting": "Dengue virus [13]", "value": ">10", "unit": "µg/mL"}, {"measurement": "EC50 NR", "setting": "[14]", "value": 0.05, "unit": "µg/mL"}, {"measurement": "IC50 NR", "setting": "[14]", "value": ">10", "unit": "µg/mL"}, {"measurement": "EC50 NR", "setting": "Polio virus [15]", "value": ">10", "unit": "µg/mL"}, {"measurement": "IC50 NR", "setting": "Polio virus [15]", "value": ">10", "unit": "µg/mL"}, {"measurement": "Mx1", "setting": "[16]", "value": 21}, {"measurement": "OAS", "setting": "[16]", "value": 12}, {"measurement": "PkR", "setting": "[16]", "value": 8}, {"measurement": "OAS activity in the serum and plasma of mice", "setting": "OAS; i.v, 10 μg-250 μg", "value": "induced OAS activity"}, {"measurement": "OAS-1 hr (OAS activity)", "setting": "OAS; plasma, 1 hr, 250 μg i.v.", "value": "80 pmol/dL of plasma"}, {"measurement": "OAS-6 hr (OAS activity)", "setting": "OAS; plasma, 6 hr, 250 μg i.v.", "value": "80 pmol/dL of plasma"}, {"measurement": "OAS-24 hr (OAS activity)", "setting": "OAS; plasma, 24 hr, 250 μg i.v.", "value": "180 pmol/dL of plasma"}, {"measurement": "OAS-48 hr (OAS activity)", "setting": "OAS; plasma, 48 hr, 250 μg i.v.", "value": "200 pmol/dL of plasma"}, {"measurement": "bone marrow cell expansion", "setting": "[17]; in the presence of IL-2 or IL-15", "value": "small inhibition"}, {"measurement": "expansion of bone marrow cells", "setting": "[17]; in the presence of IL-3, IL-4, IL-5, IL-7, IL-10, IL-12, IL-21 or no added cytokine", "value": "no significant effect"}]}]}
